The experiment addresses T1, alpha globin (Homo sapiens, UniProt P69905).
T1 construct: The equilibrium dissociation constant of full-length alpha globin and the eNOS oxygenase domain had not previously been quantified
The experiment is described as follows: Protein-protein binding affinity by biolayer interferometry. The settings on record: binding to immobilized biotinylated alpha globin. How it is done:
FIGS. 2A-2D: A) Beta globin, eNOS, and cytochrome B5 reductase 3 (Cyb5R3) co-immunoprecipitate with alpha globin in lysates of perfused human omental arteries. P1, P2, and P3 each represent an independent replicate consisting of pooled flash-frozen arteries from two donors (n=30 arteries from each donor). P1 and P2 were incubated with an alpha globin antibody to immunoprecipitate alpha globin and bound protein partners. P3 was incubated instead with an IgG antibody as a negative control. Western blot was performed on the immunoprecipitate with antibodies for alpha globin, beta globin, Cyb5R3, or eNOS. Myc-eNOS purified from a cell overexpression lysate served as a positive control for eNOS. RBC lysate served as a positive control for alpha and beta globin. B) The red blood cell protein Band 3/SLC4A1 is not detected in protein lysates from pooled human omental arteries. Prior to immunoprecipitation, whole protein lysate was loaded into a gel and probed by Western Blot for SLC4A1 and alpha globin. […] C-D) Biolayer interferometry sensorgram traces of the binding of eNOS or AHSP to alpha globin showing association and dissociation; raw datasets shown in black, fitting curves shown. […]
Protein-protein binding affinity assessed by biolayer interferometry: Biolayer interferometry experiments were performed on the automated eight-channel Octet RED96 instrument (ForteBio). […]
In general terms: Biolayer interferometry detects binding as a change in optical thickness at a sensor tip.

T1 sequence (P69905 whole entry, the tested form may be a part): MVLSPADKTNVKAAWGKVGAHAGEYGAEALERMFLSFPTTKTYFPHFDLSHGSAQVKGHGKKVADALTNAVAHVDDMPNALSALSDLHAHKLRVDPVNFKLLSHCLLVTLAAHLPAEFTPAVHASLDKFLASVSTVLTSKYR

B1: eNOSox: recombinant human eNOS oxidase domain (protein)
chain: PKFPRVKNWEVGSITYDTLSAQAQQDGPCTPRRCLGSLVFPRKLQGRPSPGPPAPEQLLSQARDFINQYYSSIKRSGSQAHEQRLQEVEAEVAATGTYQLRESELVFGAKQAWRNAPRCVGRIQWGKLQVFDARDCRSAQEMFTYICNHIKYATNRGNLRSAITVFPQRCPGRGDFRIWNSQLVRYAGYRQQDGSVRGDPANVEITELCIQHGWTPGNGRFDVLPLLLQAPDDPPELFLLPPELVLEVPLEHPTLEWFAALGLRWYALPAVSNMLLEIGGLEFPAAPFSGWYMSTEIGTRNLCDPHRYNILEDVAVCMDLDTRTTSSLWKDKAAVEINVAVLHSYQLAKVTIVDHHAATASFMKHLENEQKARGGCPADWAWIVPPISGSLTPVFHQEMVNYFLSPAFRYQPDPWKGSAAKGTGITR
The Kd is the concentration at which binding is half-saturated. The low end stands for tighter binding, the high end for weaker binding. In the case of B1, the dissociation constant Kd came out at 1310 nM.

These data come from US20260258113A1, “BETA GLOBIN MIMETIC PEPTIDES AND THEIR USE” (THE UNITED STATES OF AMERICA, AS REPRESENTED BY THE …, priority 2022, published 2026).
